Conditions in all cases: both partners purified
Assay [1] deals with T1, MBP-KEE ligand (EE peptide) (peptide tag (EE/Glu-Glu), derived from …).
T1 construct: EE peptide presented by MBP
T1 chain: EYMPME
Nature of the assay: ELISA; wells coated with carrier protein ligands (10 μg/mL); purified Fab serially diluted; detected with goat-anti-human kappa-HRP. On the technique in general: ELISA stands for enzyme-linked immunosorbent assay.

Assay [2] deals with T2, carrier protein (scFv 14B7) with the minimal DYKD peptide at the n-terminus (synthetic peptide tag (minimal FLAG)).
T2 construct: minimal FLAG peptide at the protein n-terminus; irrelevant scFv 14B7 used as carrier protein; also called n-DYKD; n-DYKD ligand; source: plasmid pAK400/14B7
T2 chain: DYKD
The description is as above.

Assay [3] deals with T1, MBP-KEE ligand (EE peptide). Nature of the assay: ELISA; monoclonal phage ELISA: phage purified by NaCl-PEG precipitation, serially diluted at known pfu, on wells coated with ligand (4 μg/ml); detected with anti-M13-HRP; signal shown at 10^11 pfu.
Assay [4] shares this target. Nature of the assay: ELISA; wells coated with carrier protein ligands (10 μg/mL); purified Fab serially diluted; detected with goat-anti-human kappa-HRP.
For assay [5], the target named is T3, carrier protein (scFv 14B7) with the minimal DYKD peptide at the n-terminus (synthetic peptide tag (minimal FLAG)).
T3 construct: minimal FLAG peptide at the protein n-terminus; irrelevant scFv 14B7 used as carrier protein; also called n-DYKD; n-DYKD ligand; source: plasmid pAK400/14B7
The description is as above. This is another data set of the same source.

B1: EEh13.6 Fab (Fab, V domains shown)
VH: QVQLQQSGPEDVKPGASVKISCKASGDSLSSFNAGVNWVKQSPGKGLEWLAHGAVMSTRYNPSLKSRATLTVDKTSSTVYLELRSLTSEDSSVYYCAKSTGRYDFWGQGTTVTVSS
VL: DIVMTQTPSSLPVSLGDQASISCRSSQSIVHSNGNTYLEWYLQKPGQSPKLLIYKVSNRFSGVPDRFSGSGSGTDFTLKISRVEAEDLGIYYCFQGSLVPPTFGAGTKLELK
notes: VH as the VH of m1: framework of the αEE scFv (PDB 3NN8) with designed CDRs H1-H3; heavy chain constant part of the Fab from the vector pFabF; not described; VL as in the αEE scFv (PDB 3NN8), not modified in the EEh library; kappa light chain constant domain from the vector pFabF; human by the detection reagent (goat anti-human kappa); This Fab co-purified with free light chain (33 % monomer); …
As to B1, the binding result in assay [1] is given as “no binding”. For the same molecule, in assay [2], the EC50 (usually the concentration needed to bring the measured effect to its halfway point) stood at 21 nM.

B2: EEh14.3 Fab (Fab, V domains shown)
VH: QVQLQQSGPEDVKPGASVKISCKASGDSLSSYNAGVNWVKQSPGKGLEWLAHMAGVSTRYNPSLKSRATLTVDKTSSTVYLELRSLTSEDSSVYYCVRNEWSGAFWGQGTTVTVSS
VL: DIVMTQTPSSLPVSLGDQASISCRSSQSIVHSNGNTYLEWYLQKPGQSPKLLIYKVSNRFSGVPDRFSGSGSGTDFTLKISRVEAEDLGIYYCFQGSLVPPTFGAGTKLELK
notes: VH as the VH of m2: framework of the αEE scFv (PDB 3NN8) with designed CDRs H1-H3; heavy chain constant part of the Fab from the vector pFabF; not described; VL as in the αEE scFv (PDB 3NN8), not modified in the EEh library; kappa light chain constant domain from the vector pFabF; human by the detection reagent (goat anti-human kappa); also called Fab EEh14.3
In the case of B2, in assay [1], the binding result was “no binding”. For the same molecule, the EC50 in assay [2] is 50 nM.

B3: EEh13.6 scFv displayed on phage (scFv, V domains shown)
VH: QVQLQQSGPEDVKPGASVKISCKASGDSLSSFNAGVNWVKQSPGKGLEWLAHGAVMSTRYNPSLKSRATLTVDKTSSTVYLELRSLTSEDSSVYYCAKSTGRYDFWGQGTTVTVSS
VL: DIVMTQTPSSLPVSLGDQASISCRSSQSIVHSNGNTYLEWYLQKPGQSPKLLIYKVSNRFSGVPDRFSGSGSGTDFTLKISRVEAEDLGIYYCFQGSLVPPTFGAGTKLELK
notes: VL as in the αEE scFv (PDB 3NN8); the light chain was not modified in the EEh library; linker, printed as (GGGGS)4; VH: framework of the αEE scFv (PDB 3NN8) with designed CDRs H1-H3; model PDB file in the supplementary datasets; Orientation VL-(GGGGS)4-VH; no amino acid differences from αEE outside the CDRs; also called EEh13.6 scFv-phage; source: E. coli, scFv fused to truncated pIII on phage …
Regarding B3, in assay [3], the binding result was “no binding”.

B4: αEE Fab (parental) (Fab, V domains shown)
VH: QVQLQQSGPEDVKPGASVKISCKASGYSLSTSGMGVNWVKQSPGKGLEWLAHIYWDDDKRYNPSLKSRATLTVDKTSSTVYLELRSLTSEDSSVYYCARRGGSSHYYAMDYWGQGTTVTVSS
VL: DIVMTQTPSSLPVSLGDQASISCRSSQSIVHSNGNTYLEWYLQKPGQSPKLLIYKVSNRFSGVPDRFSGSGSGTDFTLKISRVEAEDLGIYYCFQGSLVPPTFGAGTKLELK
notes: VH of the αEE scFv; heavy chain constant part of the Fab; not described; VL of the αEE scFv; kappa light chain constant domain; human by the detection reagent (goat anti-human kappa); also called parental αEE Fab; source: bacterial periplasm, purified Fab
Molecule B4 returned an EC50 in assay [4] of 35.3 nM.

B5: EEh14.3 scFv displayed on phage (scFv, V domains shown)
VH: QVQLQQSGPEDVKPGASVKISCKASGDSLSSYNAGVNWVKQSPGKGLEWLAHMAGVSTRYNPSLKSRATLTVDKTSSTVYLELRSLTSEDSSVYYCVRNEWSGAFWGQGTTVTVSS
VL: DIVMTQTPSSLPVSLGDQASISCRSSQSIVHSNGNTYLEWYLQKPGQSPKLLIYKVSNRFSGVPDRFSGSGSGTDFTLKISRVEAEDLGIYYCFQGSLVPPTFGAGTKLELK
notes: VL as in the αEE scFv (PDB 3NN8); the light chain was not modified in the EEh library; linker, printed as (GGGGS)4; VH: framework of the αEE scFv (PDB 3NN8) with designed CDRs H1-H3; model PDB file in the supplementary datasets; Orientation VL-(GGGGS)4-VH; no amino acid differences from αEE outside the CDRs; also called EEh14.3 scFv-phage; source: E. coli, scFv fused to truncated pIII on phage …
Take B5: the binding result in assay [3] is recorded as “no binding”.

B6: EEf15.4 Fab (Fab, V domains shown)
VH: QVQLQQSGPEDVKPGASVKISCKASGFSIKGANVNWVKQSPGKGLEWLAHVRGDASTRYNPSLKSRATLTVDKTSSTVYLELRSLTSEDSSVYYCADRKMYSFYSGGEAWGQGTTVTVSS
VL: DIVMTQTPSSLPVSLGDQASISCRSSNARSGSLEWYLQKPGQSPKLLIYDGNNRFSGVPDRFSGSGSGTDFTLKISRVEAEDLGIYYCSAFDQTNKYVGFGAGTKLELK
notes: VH as the VH of m3: framework of the αEE scFv (PDB 3NN8) with designed CDRs H1-H3; heavy chain constant part of the Fab from the vector pFabF; not described; VL as the VL of m3: framework of the αEE scFv (PDB 3NN8) with designed CDRs L1-L3; kappa light chain constant domain from the vector pFabF; human by the detection reagent (goat anti-human kappa); also called Fab EEf15.4
For B6, the binding result in assay [1] was “no binding”. This molecule also gave an EC50 in assay [5] of 4.1 nM.

B7: EEf15.4a scFv displayed on phage (scFv, V domains shown)
VH: QVQLQQSGPEDVKPGASVKISCKASGYIGSSHTVNWVKQSPGKGLEWLAHVRGDASTRYNPSLKSRATLTVDKTSSTVYLELRSLTSEDSSVYYCADRKMYSFYSGGEAWGQGTTVTVSS
VL: DIVMTQTPSSLPVSLGDQASISCRSSNARSGSLEWYLQKPGQSPKLLIYDGNNRFSGVPDRFSGSGSGTDFTLKISRVEAEDLGIYYCSAFDQTNKYVGFGAGTKLELK
notes: VL as the VL of EEf15.4: framework of the αEE scFv (PDB 3NN8) with designed CDRs L1-L3; linker, printed as (GGGGS)4; VH as the VH of EEf15.4 except CDR H1, which is that of design EEf5.1; framework of the αEE scFv (PDB 3NN8); Result of a gene synthesis error that combined CDR H1 of EEf5.1 with the other five CDRs of EEf15.4; also called EEf15.4a scFv-phage; source: E. coli, scFv fused …
Consider B7, for which the binding result in assay [3] is recorded as “no binding”.

B8: EEf15.4 scFv displayed on phage (scFv, V domains shown)
VH: QVQLQQSGPEDVKPGASVKISCKASGFSIKGANVNWVKQSPGKGLEWLAHVRGDASTRYNPSLKSRATLTVDKTSSTVYLELRSLTSEDSSVYYCADRKMYSFYSGGEAWGQGTTVTVSS
VL: DIVMTQTPSSLPVSLGDQASISCRSSNARSGSLEWYLQKPGQSPKLLIYDGNNRFSGVPDRFSGSGSGTDFTLKISRVEAEDLGIYYCSAFDQTNKYVGFGAGTKLELK
notes: VL: framework of the αEE scFv (PDB 3NN8) with designed CDRs L1-L3; model PDB file in the supplementary datasets; linker, printed as (GGGGS)4; VH: framework of the αEE scFv (PDB 3NN8) with designed CDRs H1-H3; Orientation VL-(GGGGS)4-VH; no amino acid differences from αEE outside the CDRs; also called EEf15.4 scFv-phage; source: E. coli, scFv fused to truncated pIII on phage (phagemid pMopac24); …
In the case of B8, the binding result in assay [3] is listed as “no binding”.

B9: EEf15.4a Fab (Fab, V domains shown)
VH: QVQLQQSGPEDVKPGASVKISCKASGYIGSSHTVNWVKQSPGKGLEWLAHVRGDASTRYNPSLKSRATLTVDKTSSTVYLELRSLTSEDSSVYYCADRKMYSFYSGGEAWGQGTTVTVSS
VL: DIVMTQTPSSLPVSLGDQASISCRSSNARSGSLEWYLQKPGQSPKLLIYDGNNRFSGVPDRFSGSGSGTDFTLKISRVEAEDLGIYYCSAFDQTNKYVGFGAGTKLELK
notes: VH as the VH of m4: as EEf15.4 except CDR H1, which is that of design EEf5.1; framework of the αEE scFv (PDB 3NN8); heavy chain constant part of the Fab from the vector pFabF; not described; VL as the VL of m3: framework of the αEE scFv (PDB 3NN8) with designed CDRs L1-L3; kappa light chain constant domain from the vector pFabF; human by the detection reagent (goat anti-human kappa); also called …
For the molecule B9, the binding result in assay [1] was “no binding”. The EC50 in assay [5] worked out at 4.8 nM.
